Assay results reported in article PMC9482650, “Quantitative fragmentomics allow affinity mapping of interactomes” (Nature Communications, 2022).
Numbering of substitutions follows the chain as printed.

Columns and labels:
Test in all cases: holdup assay
Parameters in all cases: key: below the threshold = too weak to quantify, mostly under pKd 3.1 to 4
Settings in all cases: plain residues with an end cap or a label only (N-terminal biotin on a linker: ado-ado)
APBA1_2, Q02410 = target: T1, APBA1_2, Q02410
T1 sequence (Q02410 742-832, limits assumed, looked up): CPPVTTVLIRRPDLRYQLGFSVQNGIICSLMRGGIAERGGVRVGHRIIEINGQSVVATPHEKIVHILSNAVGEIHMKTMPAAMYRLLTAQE

ARHGEF12, Q9NZN5-2 = target: ARHGEF12, Q9NZN5-2
DLG1_1, Q12959 = target: DLG1_1, Q12959
DLG2_2, Q15700 = target: DLG2_2, Q15700
DLG3_3, Q92796 = target: T2, DLG3_3, Q92796
T2 sequence (Q92796 374-475, limits assumed, looked up): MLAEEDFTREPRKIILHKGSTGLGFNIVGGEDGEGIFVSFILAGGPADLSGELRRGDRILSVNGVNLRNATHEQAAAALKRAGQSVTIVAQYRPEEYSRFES

DLG4_3, P78352 = target: DLG4_3, P78352
FRMPD2_1, Q68DX3 = target: FRMPD2_1, Q68DX3
FRMPD2_2, Q68DX3 = target: FRMPD2_2, Q68DX3
FRMPD3, Q5JV73 = target: FRMPD3, Q5JV73
GOPC, Q9HD26 = target: GOPC, Q9HD26
GORASP1, Q9BQQ3 = target: GORASP1, Q9BQQ3
GRIP2_3, Q9C0E4 = target: GRIP2_3, Q9C0E4
HTRA3, P83110 = target: T3, HTRA3, P83110
T3 sequence (P83110 354-453, limits assumed, looked up): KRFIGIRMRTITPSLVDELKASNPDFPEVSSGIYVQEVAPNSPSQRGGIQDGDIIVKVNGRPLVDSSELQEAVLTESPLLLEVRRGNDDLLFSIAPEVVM

Inadl_1, Q8NI35 = target: Inadl_1, Q8NI35
Inadl_10, Q8NI35 = target: Inadl_10, Q8NI35
Inadl_4, Q8NI35 = target: Inadl_4, Q8NI35
Inadl_6, Q8NI35 = target: Inadl_6, Q8NI35
Inadl_8, Q8NI35 = target: Inadl_8, Q8NI35
LIN7B, Q9HAP6 = target: T4, LIN7B, Q9HAP6
T4 sequence (Q9HAP6 88-185, limits assumed, looked up): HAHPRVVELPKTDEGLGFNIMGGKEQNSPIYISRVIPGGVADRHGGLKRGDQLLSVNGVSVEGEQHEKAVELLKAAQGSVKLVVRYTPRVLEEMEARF

LIN7C, Q9NUP9 = target: T5, LIN7C, Q9NUP9
T5 sequence (Q9NUP9 88-185, limits assumed, looked up): T4 sequence (Q9HAP6 88-185, limits assumed, looked up) with A2S, D13E, V35I, V40I, Q65H, S79K, R89K, A96S

LNX1_2, Q8TBB1 = target: LNX1_2, Q8TBB1
LNX1_3, Q8TBB1 = target: LNX1_3, Q8TBB1
MAGI1_2, Q96QZ7 = target: MAGI1_2, Q96QZ7
MAGI2_3, Q86UL8 = target: MAGI2_3, Q86UL8
MAGI3_2, Q5TCQ9 = target: MAGI3_2, Q5TCQ9
MAST2, Q6P0Q8 = target: MAST2, Q6P0Q8
NHERF3_3, Q5T2W1 = target: T6, NHERF3_3, Q5T2W1
T6 sequence (Q5T2W1 238-333, limits assumed, looked up): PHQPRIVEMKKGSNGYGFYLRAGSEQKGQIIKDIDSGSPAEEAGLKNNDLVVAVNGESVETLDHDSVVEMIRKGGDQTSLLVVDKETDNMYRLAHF

NHERF4_4, Q86UT5 = target: NHERF4_4, Q86UT5
PARD3_3, Q8TEW0 = target: PARD3_3, Q8TEW0
RHPN1, Q8TCX5 = target: T7, RHPN1, Q8TCX5
T7 sequence (Q8TCX5 508-602, limits assumed, looked up): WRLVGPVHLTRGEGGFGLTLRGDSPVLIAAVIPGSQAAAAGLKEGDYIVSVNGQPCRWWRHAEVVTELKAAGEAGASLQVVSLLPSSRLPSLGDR

SNTA1, Q13424 = target: T8, SNTA1, Q13424
T8 sequence (Q13424 82-180, limits assumed, looked up): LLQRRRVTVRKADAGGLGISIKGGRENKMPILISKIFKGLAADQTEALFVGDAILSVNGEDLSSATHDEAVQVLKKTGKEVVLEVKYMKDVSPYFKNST

Sequence of Inadl_10, Q8NI35 (Q8NI35 1673-1763): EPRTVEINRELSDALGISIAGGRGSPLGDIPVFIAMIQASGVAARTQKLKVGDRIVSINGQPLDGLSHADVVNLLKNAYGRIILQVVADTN
Sequence of Inadl_1, Q8NI35 (Q8NI35 113-229): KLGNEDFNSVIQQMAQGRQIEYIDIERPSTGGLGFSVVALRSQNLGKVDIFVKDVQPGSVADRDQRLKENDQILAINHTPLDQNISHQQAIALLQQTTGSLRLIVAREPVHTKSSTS
Sequence of MAGI1_2, Q96QZ7 (Q96QZ7 456-580): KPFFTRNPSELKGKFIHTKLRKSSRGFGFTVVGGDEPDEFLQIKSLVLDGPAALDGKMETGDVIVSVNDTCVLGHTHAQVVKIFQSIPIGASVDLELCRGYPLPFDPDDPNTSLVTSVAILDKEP
Sequence of MAST2, Q6P0Q8 (Q6P0Q8 1099-1202): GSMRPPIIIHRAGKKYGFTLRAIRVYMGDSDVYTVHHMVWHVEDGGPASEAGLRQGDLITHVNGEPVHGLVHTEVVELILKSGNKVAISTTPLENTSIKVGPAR
Sequence of FRMPD3, Q5JV73 (Q5JV73 12-100): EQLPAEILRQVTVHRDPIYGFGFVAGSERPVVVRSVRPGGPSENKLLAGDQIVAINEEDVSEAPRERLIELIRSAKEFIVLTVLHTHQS
Sequence of MAGI3_2, Q5TCQ9 (Q5TCQ9 398-503): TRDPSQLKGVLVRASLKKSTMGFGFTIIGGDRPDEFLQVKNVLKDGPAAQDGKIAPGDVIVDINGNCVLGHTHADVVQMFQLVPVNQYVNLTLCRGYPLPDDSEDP
Sequence of FRMPD2_2, Q68DX3 (Q68DX3 944-1038): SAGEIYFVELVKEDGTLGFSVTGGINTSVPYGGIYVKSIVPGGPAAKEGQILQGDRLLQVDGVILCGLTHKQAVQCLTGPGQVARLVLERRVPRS
Sequence of LNX1_2, Q8TBB1 (Q8TBB1 371-470): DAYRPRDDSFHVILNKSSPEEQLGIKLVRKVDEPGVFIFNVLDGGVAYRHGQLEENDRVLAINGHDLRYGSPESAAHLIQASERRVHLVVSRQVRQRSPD
Sequence of GORASP1, Q9BQQ3 (Q9BQQ3 1-208): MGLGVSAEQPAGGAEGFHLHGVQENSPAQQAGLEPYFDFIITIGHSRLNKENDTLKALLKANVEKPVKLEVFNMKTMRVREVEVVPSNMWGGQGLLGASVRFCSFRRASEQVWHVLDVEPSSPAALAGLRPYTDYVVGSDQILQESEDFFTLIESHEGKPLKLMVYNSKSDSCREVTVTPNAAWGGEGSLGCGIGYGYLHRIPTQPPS
Sequence of Inadl_4, Q8NI35 (Q8NI35 547-651): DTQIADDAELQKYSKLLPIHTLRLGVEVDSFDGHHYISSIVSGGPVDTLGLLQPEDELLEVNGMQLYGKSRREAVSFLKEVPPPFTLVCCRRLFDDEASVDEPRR
Sequence of Inadl_6, Q8NI35 (Q8NI35 1058-1167): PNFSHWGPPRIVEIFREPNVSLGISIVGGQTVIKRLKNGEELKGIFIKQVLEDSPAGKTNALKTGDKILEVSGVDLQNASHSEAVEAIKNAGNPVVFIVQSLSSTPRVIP
Sequence of ARHGEF12, Q9NZN5-2 (Q9NZN5 other isoform, or with tags, fused parts or gaps): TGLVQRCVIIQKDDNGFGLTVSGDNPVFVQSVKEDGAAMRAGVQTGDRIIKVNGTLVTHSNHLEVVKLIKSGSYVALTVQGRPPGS
Sequence of GRIP2_3, Q9C0E4 (Q9C0E4 238-339): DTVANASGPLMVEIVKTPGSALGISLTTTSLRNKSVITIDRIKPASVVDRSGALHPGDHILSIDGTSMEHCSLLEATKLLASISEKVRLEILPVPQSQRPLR
Sequence of DLG2_2, Q15700 (Q15700 189-283): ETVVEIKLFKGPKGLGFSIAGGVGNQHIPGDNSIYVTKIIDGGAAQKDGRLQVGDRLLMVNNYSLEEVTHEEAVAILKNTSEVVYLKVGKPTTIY
Sequence of NHERF4_4, Q86UT5 (Q86UT5 464-550): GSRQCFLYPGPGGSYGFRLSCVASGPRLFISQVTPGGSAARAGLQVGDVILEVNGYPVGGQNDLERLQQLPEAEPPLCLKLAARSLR
Sequence of Inadl_8, Q8NI35 (Q8NI35 1425-1530): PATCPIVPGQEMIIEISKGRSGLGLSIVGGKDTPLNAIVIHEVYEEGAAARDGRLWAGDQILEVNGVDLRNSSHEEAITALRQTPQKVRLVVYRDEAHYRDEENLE
Sequence of LNX1_3, Q8TBB1 (Q8TBB1 500-596): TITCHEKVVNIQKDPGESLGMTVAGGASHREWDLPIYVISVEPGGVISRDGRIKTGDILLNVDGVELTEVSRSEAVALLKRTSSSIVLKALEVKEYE
Sequence of DLG4_3, P78352 (P78352 306-403): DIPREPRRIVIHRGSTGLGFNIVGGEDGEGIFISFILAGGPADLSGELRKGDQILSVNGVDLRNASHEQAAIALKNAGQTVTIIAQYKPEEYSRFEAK
Sequence of FRMPD2_1, Q68DX3 (Q68DX3 770-861): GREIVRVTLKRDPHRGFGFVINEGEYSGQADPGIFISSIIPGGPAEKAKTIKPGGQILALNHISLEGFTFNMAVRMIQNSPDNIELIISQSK
Sequence of PARD3_3, Q8TEW0 (Q8TEW0 582-685): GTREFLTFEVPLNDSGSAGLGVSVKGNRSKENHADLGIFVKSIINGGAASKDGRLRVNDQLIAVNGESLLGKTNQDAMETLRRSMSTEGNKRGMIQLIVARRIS
Sequence of MAGI2_3, Q86UL8 (Q86UL8 600-682): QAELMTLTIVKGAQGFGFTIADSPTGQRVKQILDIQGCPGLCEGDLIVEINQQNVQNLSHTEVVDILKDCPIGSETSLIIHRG

Binder	pKd (APBA1_2, Q02410)	pKd (ARHGEF12, Q9NZN5-2)	pKd (DLG1_1, Q12959)	pKd (DLG2_2, Q15700)	pKd (DLG3_3, Q92796)	pKd (DLG4_3, P78352)	pKd (FRMPD2_1, Q68DX3)	pKd (FRMPD2_2, Q68DX3)	pKd (FRMPD3, Q5JV73)	pKd (GOPC, Q9HD26)	pKd (GORASP1, Q9BQQ3)	pKd (GRIP2_3, Q9C0E4)	pKd (HTRA3, P83110)	pKd (Inadl_1, Q8NI35)	pKd (Inadl_10, Q8NI35)	pKd (Inadl_4, Q8NI35)	pKd (Inadl_6, Q8NI35)	pKd (Inadl_8, Q8NI35)	pKd (LIN7B, Q9HAP6)	pKd (LIN7C, Q9NUP9)	other results
IQISELETNV [SLC1A7, O00341]	3.83	3.71	4.34	4.56	3.56	below the threshold	below the threshold	5.03	below the threshold	below the threshold	below the threshold	below the threshold	below the threshold	below the threshold	below the threshold	below the threshold	4.04	below the threshold	below the threshold	3.97	pKd (LNX1_2, Q8TBB1): below the threshold; pKd (LNX1_3, Q8TBB1): below the threshold; pKd (MAGI1_2, Q96QZ7): below the threshold; pKd (MAGI2_3, Q86UL8): 3.96; pKd (MAGI3_2, Q5TCQ9): 4.28; pKd (MAST2, Q6P0Q8): 5.61; pKd (NHERF3_3, Q5T2W1): below the threshold; pKd (NHERF4_4, Q86UT5): 3.85; pKd (PARD3_3, Q8TEW0): 3.68; pKd (RHPN1, Q8TCX5): 4.88; pKd (SNTA1, Q13424): 4.98
QQGLLPHSSC [TYRO3, Q06418]	below the threshold	4.18	below the threshold	below the threshold	below the threshold	below the threshold	below the threshold	below the threshold	below the threshold	below the threshold	below the threshold	below the threshold	below the threshold	below the threshold	below the threshold	below the threshold	below the threshold	4.08	below the threshold	3.95	pKd (LNX1_2, Q8TBB1): below the threshold; pKd (LNX1_3, Q8TBB1): below the threshold; pKd (MAGI1_2, Q96QZ7): below the threshold; pKd (MAGI2_3, Q86UL8): below the threshold; pKd (MAGI3_2, Q5TCQ9): below the threshold; pKd (MAST2, Q6P0Q8): 3.83; pKd (NHERF3_3, Q5T2W1): below the threshold; pKd (NHERF4_4, Q86UT5): below the threshold; pKd (PARD3_3, Q8TEW0): below the threshold; pKd (RHPN1, Q8TCX5): below the threshold; pKd (SNTA1, Q13424): below the threshold
KSRPENGTVC [TMEM178B, H3BS89]	below the threshold	3.65	3.71	below the threshold	below the threshold	3.5	below the threshold	below the threshold	below the threshold	below the threshold	below the threshold	below the threshold	4.44	below the threshold	below the threshold	below the threshold	below the threshold	below the threshold	below the threshold	below the threshold	pKd (LNX1_2, Q8TBB1): 4.05; pKd (LNX1_3, Q8TBB1): below the threshold; pKd (MAGI1_2, Q96QZ7): below the threshold; pKd (MAGI2_3, Q86UL8): below the threshold; pKd (MAGI3_2, Q5TCQ9): below the threshold; pKd (MAST2, Q6P0Q8): 4.21; pKd (NHERF3_3, Q5T2W1): below the threshold; pKd (NHERF4_4, Q86UT5): below the threshold; pKd (PARD3_3, Q8TEW0): below the threshold; pKd (RHPN1, Q8TCX5): below the threshold; pKd (SNTA1, Q13424): below the threshold
